Data as given in patent US12697350B2, “Methods and compositions for treating a premature termination codon-mediated disorder” (Tevard Biosciences, Inc., priority 2019, dated 2026).
Where a chain is given by its changes, count along the chain named.

B1: tRNA-Gln-TTG-3-1-TTA-SUP (nucleic acid)
chain: GGCCCCATGGTGTAATGGTTAGCACTCTGGACTTTAAATCCAGCGATCCGAGTTCAAATCTCGGTGGGACCT
modifications: expressed or natural sequence
B2: tRNA-Gln-CTG-1-1-CTA-SUP (nucleic acid)
chain: B1 chain with C3T, T34C
modifications: chemistry not fully specified
B3: tRNA-Gln-TTG-1-1-TTA-SUP (nucleic acid)
chain: B1 chain with C3T
modifications: chemistry not fully specified

Tests used:
EGFP-Q69X-TAA reporter [1] = assay: 100 nt 5′ leader sequence library with GlnTTA suppressor tRNA #163, EGFP-Q69X-TAA reporter, Flp-In-293 cells (FIGS. 30, 31, 32); format: cell-based, human
Text: FIG. 27 is a schematic representation of the constructs used to test the impact of a 5′ leader sequence on the read-through of a premature termination codon (PTC) by a suppressor tRNA. Constructs contain (i) a 100 bp 5′ leader sequence derived from genomic DNA located upstream of tRNA genes that are highly expressed in HEK293 cells, (ii) a single copy of either the ArgTCA suppressor tRNA #115 (SEQ ID NO: 18) or the GlnTTA suppressor tRNA #163 (SEQ ID NO: 45), and (iii) an RNA polymerase III termination signal (“Term”).
FIG. 30 is a graph depicting the readthrough activity of the indicated GlnTTA suppressor tRNA expression constructs as measured by flow cytometry in Flp-In-293 cells at ~24 hours post transfection. […]
FIG. 31 is a graph depicting the readthrough activity of the indicated GlnTTA suppressor tRNA expression constructs as measured by flow cytometry in Flp-In-293 cells at ~24 hours post transfection. […]
The leader sequences in combination with the ArgTCA suppressor tRNA #115 (SEQ ID NO: 18) or the GlnTTA suppressor tRNA #163 (SEQ ID NO: 45) were tested for PTC readthrough activity by flow cytometry in cell lines co-transfected with an EGFP-R96X-TGA reporter (SEQ ID NO: 31) for ArgTCA constructs or an EGFP-Q69X-TAA reporter (SEQ ID NO: 175) for GlnTTA constructs.

Neuro-2a cells = format: cell-based, mouse
Description: FIG. 23 is a graph depicting cell viability from FIG. 22 as measured by flow cytometry at ~48 hours post transfection. Neuro-2a cells were transfected with an expression construct containing the EGFP-R96X-TGA reporter (“GFP-PTC”) and either (i) transfected with an expression construct including the ArgTCA suppressor tRNA #115 (SEQ ID NO: 18) at the indicated copy number on the same construct, or (ii) treated with ataluren at the indicated concentration, (iii) treated with gentamicin at the indication concentration, or (iv) treated with G418 at the indicated concentration. For all experimental conditions, cell culture medium was replaced with fresh medium ~6 hour after transfection and the indicated drugs at the indicated concentrations were added at this point. A reporter containing wildtype GFP without a PTC (“WT-GFP”) was used as a control. “Mock” indicates mock transfected cells. “4×TCG” indicates cells transfected with an expression construct that contains four copies of a wild-type Arg-tRNA with a TCG anticodon and the EGFP-R96X-TGA reporter. Cell viability was assessed by flow cytometry using 7-Amino Actinomycin D (7-AAD), a membrane impermeant dye that is generally excluded from viable cells.
FIG. 34 is a graph depicting cell viability from FIG. 33 as measured by flow cytometry at ~48 hours post transfection. […] Cell viability was assessed by flow cytometry using 7-Amino Actinomycin D (7-AAD), a membrane impermeant dye that is generally excluded from viable cells.
FIG. 36 is a graph depicting cell viability from FIG. 35 as measured by flow cytometry at ~48 hours post transfection. […] Cell viability was assessed by flow cytometry using 7-Amino Actinomycin D (7-AAD), a membrane impermeant dye that is generally excluded from viable cells. […]

EGFP-Q69X-TAG reporter = assay: PTC readthrough of GlnCTA suppressor tRNA #196 versus nonsense suppression drugs, EGFP-Q69X-TAG reporter, Neuro-2a cells (FIG. 35); format: cell-based, mouse; details: versus ataluren, gentamicin, G418 (FIG. 35)
Description: FIG. 35 is a graph depicting the percentage of EGFP positive cells as measured by flow cytometry in three independent experiments at ~48 hours post transfection. Neuro-2a cells were transfected with an expression construct containing the EGFP-Q69X-TAG reporter (“EGFP-PTC”) (SEQ ID NO: 176) and either (i) including the GlncTA suppressor tRNA #196 (SEQ ID NO: 178) at the indicated copy number on the same construct, or (ii) treated with ataluren at the indicated concentration, (iii) treated with gentamicin at the indication concentration, or (iv) treated with G418 at the indicated concentration. […]
(§1) The suppressor tRNAs were tested alongside nonsense suppression drugs translarna (ataluren), gentamicin, and G418 (geneticin). PTC readthrough activity was measured in Neuro-2a cells ~48 hours after transfection with an expression construct containing a CAG:NLS-EGFP (Q69X-TAA) reporter (as described in Example 4, SEQ ID NO: 175) and either (i) including a Gln suppressor tRNA (either #002, tRNA-Gln-TTG-1-1-TTA-SUP, SEQ ID NO: 36, or #196, tRNA-Gln-TTG-1-1-CTA-SUP, SEQ ID NO: 178, both as described in Example 4) at the indicated copy number on the same construct, or (ii) treated with ataluren, (iii) treated with gentamicin, or (iv) treated with G418. […] PTC readthrough activity was measured as the percentage of EGFP positive cells as measured by flow cytometry. […]

EGFP-Q69X-TAA reporter [2] = assay: PTC readthrough of GlnTTA suppressor tRNA #002 versus nonsense suppression drugs, EGFP-Q69X-TAA reporter, Neuro-2a cells (FIG. 33); format: cell-based, mouse; details: versus ataluren, gentamicin, G418 (FIG. 33)
Description: FIG. 33 is a graph depicting the percentage of EGFP positive cells as measured by flow cytometry in three independent experiments at ~48 hours post transfection. Neuro-2a cells were transfected with an expression construct containing the EGFP-Q69X-TAA reporter (“EGFP-PTC”) (SEQ ID NO: 175) and either (i) including the GlnTTA suppressor tRNA #002 (SEQ ID NO: 36) at the indicated copy number on the same construct, or (ii) treated with ataluren at the indicated concentration, (iii) treated with gentamicin at the indication concentration, or (iv) treated with G418 at the indicated concentration. […]
as §1

Row | Molecule | readthrough activity when combined with the identified leader sequences (EGFP-Q69X-TAA reporter [1]) | cell viability (Neuro-2a cells) | PTC readthrough compared with nonsense suppression drugs (EGFP-Q69X-TAG reporter) | PTC readthrough compared with nonsense suppression drugs (EGFP-Q69X-TAA reporter [2])
1 | B1 | showed high readthrough activity | – | – | –
2 | B2 | – | not accompanied by a decrease in cell viability | greater readthrough than any of the nonsense suppression drugs | –
3 | B3 | – | not accompanied by a decrease in cell viability | – | greater readthrough than any of the nonsense suppression drugs
